Results on three molecules are retold here after patent US6391637.

Experiment [1] deals with T1, CD40/Fc fusion protein (human, UniProt P25942 21-193). The experiment is described as follows: BIAcore biosensor; CD40/Fc captured on the chip; first experiment; K1 (site 1). The protocol: (§1) This example illustrates the binding affinities of several different CD40-L constructs. Affinity experiments were conducted by biospecific interaction analysis (BIA) using a biosensor, an instrument that combines a biological recognition mechanism with a sensing device or transducer. An exemplary biosensor is BIAcore™, from Pharmacia Biosensor AB (Uppsala, Sweden; see Fagerstam L.G., Techniques in Protein Chemistry II, ed. J. J. Villafranca, Acad. Press, NY, 1991). BIAcore™ uses the optical phenomenon surface plasmon resonance (Kretschmann and Raether, Z. Naturforschung, Teil. A 23:2135, 1968) to monitor the interaction of two biological molecules. Molecule pairs having affinity constants in the range 10^5 to 10^10 M^-1, and association rate constants in the range of 10^3 to 10^6 M^-1s^-1, are suitable for characterization with BIAcore™.
(§2) The biosensor chips were coated with goat anti-human IgG_1 Fc, which was used to bind CD40/Fc (prepared as described in Example 1) to the chip. The different constructs of CD40-L were then added at increasing concentrations; the chip was regenerated between the different constructs by the addition of sodium hydroxide. Two separate experiments were performed. […] The resultant data were analyzed to determine the affinity and association rate constants of the different CD40-L constructs. […]
(In SPR one partner is held on a chip, and binding of the other changes the refractive index at the surface.)
T1 sequence (P25942 21-193): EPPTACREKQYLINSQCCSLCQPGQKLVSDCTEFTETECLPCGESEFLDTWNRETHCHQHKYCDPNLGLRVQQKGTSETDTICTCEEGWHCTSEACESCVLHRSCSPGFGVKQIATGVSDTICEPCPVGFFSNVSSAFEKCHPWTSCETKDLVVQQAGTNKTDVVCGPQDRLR

The target in experiment [2] is T1, CD40/Fc fusion protein. The experiment is described as follows: BIAcore biosensor; CD40/Fc captured on the chip; first experiment; K2 (site 2). The protocol:
as §1, §2

The target of experiment [3] is T2, CD40/Fc fusion protein (human, UniProt P25942 21-193).
T2 construct: extracellular domain; also called sCD40/Fc; C40/Fc; not shown: remainder of the human IgG1 Fc region (hinge onwards), joined at a Bgl II site
In words: BIAcore biosensor; CD40/Fc captured on the chip; first experiment; K1 (site 1). The protocol: as §1, §2
T2 sequence (P25942 21-193): as above

Experiment [4] addresses T2, CD40/Fc fusion protein. In words: BIAcore biosensor; CD40/Fc captured on the chip; first experiment; K2 (site 2). The protocol: as §1, §2
In experiment [5] the target is T1, CD40/Fc fusion protein. The experiment is described as follows: biosensor assay substantially as in Example 22 (CD40/Fc captured on the chip); Affinity Ka.

B1: dimeric murine CD40-L (Fc fusion, prepared substantially as in Example 14) (Fc fusion)
chain: DKVEEEVNLHEDFVFIKKLKRCNKGEGSLSLLNCEEMRRQFEDLVKDITLNKEEKKENSFEMQRGDEDPQIAAHVVSEANSNAASVLQWAKKGYYTMKSNLVMLENGKQLTVKREGLYYVYTQVTFCSNREPSSQRPFIVGLWLKPSSGSERILLKAANTHSSSQLCEQQSVHLGGVFELQAGASVFVNVTEASQVIHRVGFSSFGLLKL
As for B1, the results for the Ka with CD40/Fc fusion protein [1] and with CD40/Fc fusion protein [2] were 7e+09 M⁻¹ and 4e+07 M⁻¹, respectively.

B2: CD40-L/FC2 soluble human CD40-L/Fc fusion protein (Fc fusion, not shown: a dimerising Fc or GST; small tags and cut ends)
chain: DKIEDERNLHEDFVFMKTIQRCNTGERSLSLLNCEEIKSQFEGFVKDIMLNKEETKKENSFEMQKGDQNPQIAAHVISEASSKTTSVLQWAEKGYYTMSNNLVTLENGKQLTVKRQGLYYIYAQVTFCSNREASSQAPFIASLCLKSPGRFERILLRAANTHSSAKPCGQQSIHLGGVFELQPGASVFVNVTDPSQVSHGTGFTSFGLLKL
notes: also called dimeric human CD40-L; Human Dimer
Regarding B2, the Ka with CD40/Fc fusion protein [3] was 1.6e+11 M⁻¹; in the experiment with CD40/Fc fusion protein [4] it was 7e+08 M⁻¹.

B3: CD40 ligand/zipper domain fusion protein mutant 194.W (ligand, not shown: a dimerising Fc or GST; small tags and cut ends)
chain: MQKGDQNPQIAAHVISEASSKTTSVLQWAEKGYYTMSNNLVTLENGKQLTVKRQGLYYIYAQVTFCSNREASSQAPFIASLWLKSPGRFERILLRAANTHSSAKPCGQQSIHLGGVFELQPGASVFVNVTDPSQVSHGTGFTSFGLLKL
On to B3, for which the Ka with CD40/Fc fusion protein [5] amounted to 1.8e+09 M⁻¹.
